Tests used:
[1] = molecular target: HIV-1 CA A14C/E45C/W184A/M185A (HIV-1 (NL4-3)); assay: cross-linking
[2] = molecular target: HIV-1 CA A14C/E45C/W184A/M185A (HIV-1 (NL4-3)); assay: SEC

HIV-1 CA A14C/E45C/W184A/M185A (natural protein)
stoichiometry N [1]: 6
stoichiometry N [2]: 6

— publication PMC2840706
